# Tested on: G protein βγ subunits
substance,measurement,value
β-adrenergic receptor kinase,rhodopsin phosphorylation in the presence or absence of 100 nM G protein βγ subunits,βARK is significantly activated in the presence of G protein βγ subunits
